Measurements reported in patent US20250042963A1, “METHODS FOR TREATING MYELOPROLIFERATIVE DISORDERS” (Acceleron Pharma Inc., priority 2015, published 2025).
Changes are numbered by the printed parent chain. In names and notes the source's numbering stands.

How the values were obtained:
[1] = test system: patients with a myeloproliferative disorder; conditions: cited from earlier work; for toxicity: patients with splenomegaly
myelofibrosis patients = conditions: anemic myelofibrosis patients; cited from earlier work
human TGFβ3 = biological target: T1, human TGFβ3 (Homo sapiens, UniProt P10600); test: Reporter gene assay in A549 cells (pGL3(CAGA)12), inhibition of TGFβ3 activity; type: cell-based; conditions: for inhibition of TGFβ3 activity / signaling (in words): cell-based reporter assay; for IC50: A549 reporter gene assay, hTGFβ3 270 pg/ml
T1 construct: purchased PeproTech
T1 sequence (P10600 301-412 limits assumed): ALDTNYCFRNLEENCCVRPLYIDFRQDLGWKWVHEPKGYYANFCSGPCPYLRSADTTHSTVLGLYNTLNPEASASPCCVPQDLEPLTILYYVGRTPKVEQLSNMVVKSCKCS
Text: (§1) A reporter gene assay in A549 cells was used to determine the ability of hTβRII-hFc variants to inhibit activity of TGFβ1, TGFβ2, and TGFβ3. This assay is based on a human lung carcinoma cell line transfected with a pGL3(CAGA)12 reporter plasmid (Dennler et al., 1998, EMBO 17: 3091-3100) as well as a Renilla reporter plasmid (pRLCMV) to control for transfection efficiency.
(§2) On the first day of the assay, A549 cells (ATCC®: CCL-185™) were distributed in 48-well plates at 6.5×10^4 cells per well. On the second day, a solution containing 10 μg pGL3(CAGA)12, 100 ng pRLCMV, 30 μl X-tremeGENE 9 (Roche Applied Science), and 970 μl OptiMEM (Invitrogen) was preincubated for 30 min, then added to Eagle's minimum essential medium (EMEM, ATCC®) supplemented with 0.1% BSA, which was applied to the plated cells (500 μl/well) for incubation overnight at […]. On the third day, medium was removed, and cells were incubated overnight at 37° C. with a mixture of ligands and inhibitors prepared as described below.
Serial dilutions of test articles were made in a 48-well plate in a 200 μl volume of assay buffer (EMEM+0.1% BSA). […] Human TGFβ 1, human TGFβ2, and human TGFβ3 were obtained from PeproTech. Test solutions were incubated at 37° C. for 30 minutes, then 250 μl of the mixture was added to all wells. Each concentration of test article was determined in duplicate. After incubation with test solutions overnight, cells were rinsed with phosphate-buffered saline, then lysed with passive lysis buffer (Promega E1941) and stored overnight at −70° C. On the fourth and final day, plates were warmed to room temperature with gentle shaking. Cell lysates were transferred in duplicate to a chemiluminescence plate (96-well) and analyzed in a luminometer with reagents from a Dual-Luciferase Reporter Assay system (Promega E1980) to determine normalized luciferase activity.

human TGFβ1 = biological target: T2, human TGFβ1 (Homo sapiens, UniProt P01137); test: Reporter gene assay in A549 cells (pGL3(CAGA)12), inhibition of TGFβ1 activity; type: cell-based; conditions: for IC50: A549 reporter gene assay, hTGFβ1 640 pg/ml; for inhibition of TGFβ1 activity / signaling (in words): cell-based reporter assay
T2 construct: purchased PeproTech
T2 sequence (P01137 279-390 limits assumed): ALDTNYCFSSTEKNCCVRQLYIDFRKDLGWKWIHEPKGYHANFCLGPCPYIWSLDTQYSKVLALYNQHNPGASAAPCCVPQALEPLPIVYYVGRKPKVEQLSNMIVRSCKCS
Text: as §1, with “efficiency. The CAGA motif is present in the promoters of TGFβ-responsive genes (for example, PAI-1), so this vector is of general use for factors signaling through SMAD2 and SMAD3.” for “efficiency.”
as §2
(§3) Serial dilutions of test articles were made in a 48-well plate in a 200 μl volume of assay buffer (EMEM+0.1% BSA). An equal volume of assay buffer containing the test ligand was added to obtain a final ligand concentration equal to the EC50 determined previously. Human TGFβ 1, human TGFβ2, and human TGFβ3 were obtained from PeproTech. Test solutions were incubated at 37° C. for 30 minutes, then 250 μl of the mixture was added to all wells. Each concentration of test article was determined in duplicate. After incubation with test solutions overnight, cells were rinsed with phosphate-buffered saline, then lysed with passive lysis buffer (Promega E1941) and stored overnight at −70° C. On the fourth and final day, plates were warmed to room temperature with gentle shaking. Cell lysates were transferred in duplicate to a chemiluminescence plate (96-well) and analyzed in a luminometer with reagents from a Dual-Luciferase Reporter Assay system (Promega E1980) to determine normalized luciferase activity.

human TGFβ2 = biological target: T3, human TGFβ2 (Homo sapiens, UniProt P61812); test: Reporter gene assay in A549 cells (pGL3(CAGA)12), inhibition of TGFβ2 activity; type: cell-based; conditions: Summary of Ligand Selectivity; cell names the ligand in this class
T3 construct: purchased PeproTech
T3 sequence (P61812 303-414 limits assumed): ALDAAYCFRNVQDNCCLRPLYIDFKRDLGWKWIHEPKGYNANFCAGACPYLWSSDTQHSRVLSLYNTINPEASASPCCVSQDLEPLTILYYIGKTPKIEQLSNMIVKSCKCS
Text: as §1, with “efficiency. The CAGA motif is present in the promoters of TGFβ-responsive genes (for example, PAI-1), so this vector is of general use for factors signaling through SMAD2 and SMAD3.” for “efficiency.”
as §2, §3

[2] = Summary of Ligand Selectivity, cell names the ligand in this class
[3] = third experiment (C-terminal truncation, N70D)

Molecule: NC(=O)NO [HC, Hydroxycarbamide]
- patients with reductions in spleen size from 25%-50% ([1]; patients treated with HC): up to 35%
- toxicity [1]: exacerbate cytopenias

Molecule: Nc1nc(Cl)nc2c1ncn2[C@H]1C[C@H](O)[C@@H](CO)O1 [cladribine]
- toxicity [1]: severe but reversible cytopenias
- spleen responses / response rate ([1]; symptomatic splenomegaly): up to 50%

Molecule: C#C[C@]1(O)CC[C@H]2[C@@H]3CCC4=Cc5oncc5C[C@]4(C)[C@H]3CC[C@@]21C [danazol]
- response rate / responses in anemia (% of patients) (myelofibrosis patients): around 20%

B1: TβRIIshort(23-159/D110K)-G2Fc: full-length short-isoform ECD with D110K substitution fused to IgG2 Fc; SEQ ID NO: 25 (unprocessed), 53 (mature) (protein)
chain: TIPPHVQKSVNNDMIVTDNNGAVKFPQLCKFCDVRFSTCDNQKSCMSNCSITSICEKPQEVCVAVWRKNDENITLETVCHDPKLPYHKFILEDAASPKCIMKEKKKPGETFFMCSCSSDECNDNIIFSEEYNTSNPDTGGGVECPPCPAPPVAGPSVFLFPPKPKDTLMISRTPEVTCVVVDVSHEDPEVQFNWYVDGVEVHNAKTKPREEQFNSTFRVVSVLTVVHQDWLNGKEYKCKVSNKGLPAPIEKTISKTKGQPREPQVYTLPPSREEMTKNQVSLTCLVKGFYPSDIAVEWESNGQPENNYKTTPPMLDSDGSFFLYSKLTVDKSRWQQGNVFSCSVMHEALHNHYTQKSLSLSPGK
- Degree of Ligand Inhibition: Moderate (ligand TGFβ3) (human TGFβ3; [2]): TGFβ3
- inhibition of TGFβ3 activity / signaling (in words) (human TGFβ3): intermediate inhibition
- IC50 (human TGFβ1; first experiment (D110K)): > 73.6 nM
- inhibition of TGFβ1 activity / signaling (in words) (human TGFβ1): loss of inhibition
- Degree of Ligand Inhibition: Negligible (ligand TGFβ2) (human TGFβ2): TGFβ2

B2: TβRIIshort(29-159)-G2Fc: N-terminally truncated (6 aa) short-isoform ECD fused to IgG2 Fc; SEQ ID NO: 29 (unprocessed), 55 (mature) (protein)
chain: QKSVNNDMIVTDNNGAVKFPQLCKFCDVRFSTCDNQKSCMSNCSITSICEKPQEVCVAVWRKNDENITLETVCHDPKLPYHDFILEDAASPKCIMKEKKKPGETFFMCSCSSDECNDNIIFSEEYNTSNPDTGGGVECPPCPAPPVAGPSVFLFPPKPKDTLMISRTPEVTCVVVDVSHEDPEVQFNWYVDGVEVHNAKTKPREEQFNSTFRVVSVLTVVHQDWLNGKEYKCKVSNKGLPAPIEKTISKTKGQPREPQVYTLPPSREEMTKNQVSLTCLVKGFYPSDIAVEWESNGQPENNYKTTPPMLDSDGSFFLYSKLTVDKSRWQQGNVFSCSVMHEALHNHYTQKSLSLSPGK
- Degree of Ligand Inhibition: Negligible (ligand TGFβ3) (human TGFβ3; [2]): TGFβ3
- inhibition of TGFβ3 activity / signaling (in words) (human TGFβ3): greatly diminished ability to inhibit
- Degree of Ligand Inhibition: Moderate (ligand TGFβ1) (human TGFβ1; [2]): TGFβ1
- inhibition of TGFβ1 activity / signaling (in words) (human TGFβ1): maintains some TGFβ1 inhibitor effects
- Degree of Ligand Inhibition: Negligible (ligand TGFβ2) (human TGFβ2): TGFβ2

B3: TβRIIshort(35-159)-G2Fc: N-terminally truncated (12 aa) short-isoform ECD fused to IgG2 Fc; SEQ ID NO: 33 (unprocessed), 57 (mature) (protein)
chain: DMIVTDNNGAVKFPQLCKFCDVRFSTCDNQKSCMSNCSITSICEKPQEVCVAVWRKNDENITLETVCHDPKLPYHDFILEDAASPKCIMKEKKKPGETFFMCSCSSDECNDNIIFSEEYNTSNPDTGGGVECPPCPAPPVAGPSVFLFPPKPKDTLMISRTPEVTCVVVDVSHEDPEVQFNWYVDGVEVHNAKTKPREEQFNSTFRVVSVLTVVHQDWLNGKEYKCKVSNKGLPAPIEKTISKTKGQPREPQVYTLPPSREEMTKNQVSLTCLVKGFYPSDIAVEWESNGQPENNYKTTPPMLDSDGSFFLYSKLTVDKSRWQQGNVFSCSVMHEALHNHYTQKSLSLSPGK
- Degree of Ligand Inhibition: Negligible (ligand TGFβ3) (human TGFβ3; [2]): TGFβ3
- inhibition of TGFβ3 activity / signaling (in words) (human TGFβ3): greatly diminished ability to inhibit
- Degree of Ligand Inhibition: Moderate (ligand TGFβ1) (human TGFβ1; [2]): TGFβ1
- inhibition of TGFβ1 activity / signaling (in words) (human TGFβ1): maintains some TGFβ1 inhibitor effects
- Degree of Ligand Inhibition: Negligible (ligand TGFβ2) (human TGFβ2): TGFβ2

B4: TβRIIshort(23-153/N70D)-G2Fc: C-terminally truncated short-isoform ECD with N70D substitution fused to IgG2 Fc; SEQ ID NO: 41 (unprocessed), 61 (mature) (protein)
chain: TIPPHVQKSVNNDMIVTDNNGAVKFPQLCKFCDVRFSTCDNQKSCMSDCSITSICEKPQEVCVAVWRKNDENITLETVCHDPKLPYHDFILEDAASPKCIMKEKKKPGETFFMCSCSSDECNDNIIFSEEYTGGGVECPPCPAPPVAGPSVFLFPPKPKDTLMISRTPEVTCVVVDVSHEDPEVQFNWYVDGVEVHNAKTKPREEQFNSTFRVVSVLTVVHQDWLNGKEYKCKVSNKGLPAPIEKTISKTKGQPREPQVYTLPPSREEMTKNQVSLTCLVKGFYPSDIAVEWESNGQPENNYKTTPPMLDSDGSFFLYSKLTVDKSRWQQGNVFSCSVMHEALHNHYTQKSLSLSPGK
- Degree of Ligand Inhibition: Potent (ligand TGFβ3) (human TGFβ3; [2]): TGFβ3
- inhibition of TGFβ3 activity / signaling (in words) (human TGFβ3): virtually undiminished ability to inhibit TGFβ3
- IC50 (human TGFβ1; [3]): 17.7 nM
- inhibition of TGFβ1 activity / signaling (in words) (human TGFβ1): greatly diminished ability to inhibit TGFβ1
- Degree of Ligand Inhibition: Negligible (ligand TGFβ2) (human TGFβ2): TGFβ2

B5: TβRIIshort(23-159)-G2Fc: wild-type human TβRII short isoform ECD (23-159) fused to human IgG2 Fc; SEQ ID NO: 50, with TPA leader SEQ ID NO: 52 (protein)
chain: B1 chain with K88D
- IC50 (human TGFβ3; first experiment (D110K)): 0.14 nM
- Degree of Ligand Inhibition: Potent (ligand TGFβ3) (human TGFβ3; [2]): TGFβ3
- IC50 (human TGFβ1; first experiment (D110K)): 1.73 nM
- Degree of Ligand Inhibition: Potent (ligand TGFβ1) (human TGFβ1; [2]): TGFβ1
- Degree of Ligand Inhibition: Negligible (ligand TGFβ2) (human TGFβ2): TGFβ2

B6: TβRIIshort(23-153)-G2Fc: C-terminally truncated (6 aa) short-isoform ECD fused to IgG2 Fc; SEQ ID NO: 37 (unprocessed), 59 (mature) (protein)
chain: B4 chain with D48N
- IC50 (human TGFβ3; [3]): 0.14 nM
- IC50 (human TGFβ1; [3]): 2.62 nM
